B1: P19 (peptide, listed as Homo sapiens)
chain: WTPIPVLTRWPLPHPPPWRRATSCRMARSSPSATSGSSVRRRCSSLPSWVWNLAASTRPRSTPS

Key:
Assay in all cases: In vitro binding of neoantigens to class I MHC (UV peptide exchange, HLA class I ELISA)
Details in all cases: 100% = same binding as positive control peptide
HLA-A*01:01 = HLA-A*01:01 (Homo sapiens, UniProt P04439, A114D/A174V/A182V/D101N/D185E/E176A/E190D/L180R/Q94H/R68K/S129P/T187R/V100A/V91M/W191G)
Method: (§1) The 9 mer peptides identified by bioinformatics analysis were analyzed for their binding propensities to 6 common HLA class I alleles (HLA-A*01:01, A*02:01, A*03:01, A*24:02, B*07:02, B*08:01). The principle of the method is briefly described below and consists of two parts, one involving exchange of peptide with a positive control induced by Ultraviolet (UV) radiation, and the second is an enzyme immunoassay to detect stable HLA-peptide and empty HLA complexes.
(§2) HLA-bound peptides are critical for the stability of the HLA complex. A conditional HLA class I complex was stabilized by an UV-labile peptide utilizing a different peptide (Pos) for each HLA (Pos: HLA-A*01:01: […](SEQ ID NO: 409), HLA-A*02:01: […] (SEQ ID NO: 410), HLA-A*03:01: […] (SEQ ID NO: 411), HLA-A*24:02: […] (SEQ ID NO: 412), HLA-B*07:02: […] (SEQ ID NO: 413), HLA-B*08:01: […] (SEQ ID NO: 414), which could be cleaved by UV irradiation when bound to the HLA molecule. Upon cleavage, the resulting peptide fragments dissociated from the HLA class I complex since their length was insufficient to bind stably to HLA. Under the conditions in which peptide cleavage was performed (neutral pH, on melting ice), the peptide-free HLA complex remained stable.
(§3) The exchange efficiency between the peptide of interest and Pos was analyzed using an HLA class I ELISA. The combined technologies allowed the identification of ligands for an HLA molecule of interest which are potentially immunogenic.
(§4) Exchange control peptide Pos was a high affinity binder to the relevant HLA class I allele while exchange control peptide Neg was a non-binder. The UV control represented UV-irradiation of conditional HLA class I complex in the absence of a rescue peptide.
(§5) The HLA class I ELISA is an enzyme immunoassay based on the detection of beta2-microglobulin (B2M) of (peptide-stabilized) HLA class I complexes. To this end streptavidin was bound onto polystyrene microtiter wells. After washing and blocking, HLA complex present in exchange reaction mixtures or ELISA controls was captured by the streptavidin on the microtiter plate via its biotinylated heavy chain. Non-bound material was removed by washing. Subsequently, horseradish peroxidase (HRP)-conjugated antibody to human B2M was added. The HRP-conjugated antibody binds only to an intact HLA complex present in the microtiter well because unsuccessful peptide exchange results in disintegration of the original UV-sensitive HLA complex upon UV illumination. In the latter case B2M was removed during the washing step. After removal of non-bound HRP conjugate by washing, a substrate solution was added to the wells. A coloured product formed in proportion to the amount of intact HLA complex present in the samples. After the reaction was terminated by the addition of a stop solution, absorbance was measured in a microtiter plate reader. The absorbance was normalized to the absorbance of an exchange control peptide (represents 100%). Suboptimal HLA binding of peptides with a moderate to low affinity for HLA class I molecules can also be detected by this ELISA technique (Rodenko, B et al. (2006) Nature Protocols 1: 1120-32).
(§6) Peptides that had 10% or greater exchange efficiency in one of the 6 HLA alleles were considered for further immunogenicity testing and analysis.
(§7) Binding of select neoepitopes to HLA-A*01:01, HLA-A*02:01, HLA-A*03:01, HLAA*24:02, HLAAB*07:02 and HLA-B*08:01 was evaluated using the assay described in Example 1. […] As a criterion for further evaluation, peptides with an exchange rate of at least 10% with the corresponding Pos peptide for at least one of the 6 HLA alleles that we considered for further evaluation. The exchange rates with the allele specific Pos peptides, of the 24 neoantigens so identified are summarized below in Table 17. Higher percentages correspond to stronger binding to the HLA allele. […]

HLA-A*02:01 = HLA-A*02:01 (Homo sapiens, UniProt P04439, D140Y/D185E/D98H/E176V/E277Q/G131W/G231S/I119V/I121R/I166T/I218V/L300P/L318F/N151K/N90K/P208A/P217A/Q86G/Q94H/R138H/R169H/T345S)
Method: as §1, §2, §3, §4, §5, §6, §7

HLA-A*24:02 = HLA-A*24:02 (Homo sapiens, UniProt P04439, D101N/D140Y/D185E/E176V/E190D/F33S/G103R/G107R/I119L/I121M/I306V/K335N/L105A/L180Q/L300P/N151K/N90K/Q86E/Q94H/R106L/R138H/R89G/T104I/T345S/V100E/W191G/Y123F)
Method: as §1, §2, §3, §4, §5, §6, §7

HLA-B*08:01 = HLA-B*08:01 (Homo sapiens, UniProt P01889, A93T/A95T/D138N/E176V/E187T/K202T/Q94N/R180D/S35A/V36M/Y33D/Y91F)
Method: as §1, §2, §3, §4, §5, §6, §7

Molecule | Exchange rate with allele specific Pos peptide, HLA-A*01:01 (HLA-A*01:01) | Exchange rate with allele specific Pos peptide, HLA-A*02:01 (HLA-A*02:01) | Exchange rate with allele specific Pos peptide, HLA-A*24:02 (HLA-A*24:02) | Exchange rate with allele specific Pos peptide, HLA-B*08:01 (HLA-B*08:01)
P46 (DDRNTFDIVWWCPMSRLRLALTVPPSTTTTCVTVPAWAA; listed as Homo sapiens) [Peptide P46] | 2.4% | 14.4% | −0.4% | 14.5%
P56 (PKSEVRAKCKFSILNAK; listed as Homo sapiens) [Peptide P56] | 2.6% | 8.4% | 0.5% | 38%
P58 (MMAEIISVHVPKILSGK; listed as Homo sapiens) [Peptide P58] | 2.5% | 11.8% | 0.2% | 5.3%
P60 (CYLRRQKRLKCEKQPGA; listed as Homo sapiens) [Peptide P60] | 3.1% | 7.9% | 0.9% | 10.2%
P61 (MFENGCYLGRQKRFKCE; listed as Homo sapiens) [Peptide P61] | 1.7% | 5.8% | 90.3% | 3.6%
P73 (DSSGNLLERNSFEVRV; listed as Homo sapiens) [Peptide P73] | 2.1% | 89.2% | 0.5% | 2.6%
P97 (GYLRMQGLMAQRLLLR; listed as Homo sapiens) [Peptide P97] | 2.5% | 4.6% | 0.1% | 2.7%
P98: neoantigen 9 mer fragment used for PBMC stimulation (FIG. 5D) (IVWWCPMSR; listed as Homo sapiens) [Neoantigen P98] | 2.5% | 7.9% | −0.1% | 2.4%
SLYHREKQLIAMDSAI (listed as Homo sapiens) [Neoantigen P22] | 4.4% | 46.9% | 0% | 3.9%
YEAGMTLGEKFRVGNCKHLKMTRP (listed as Homo sapiens) [Neoantigen P82] | 1.5% | 6.3% | −0.1% | 1.4%
YEAGMTLGGKILFFLFLLLPLSPFSLIF (listed as Homo sapiens) [Neoantigen P87] | 1.1% | 64% | 0.2% | 3.1%
B1 | 5.2% | 8.2% | 0.1% | 14.5%

— patent US12295997B2, “Prostate neoantigens and their uses” (Janssen Biotech, Inc., priority 2020, dated 2025)
